In US20080045455A1 (TRANSTECH PHARMA, published 2008):

How the values were obtained:
[1] = target: Fc receptor on THP-1 cells; experiment: cell-based or functional assay
BSA = target: T1, BSA (UniProt P02769 25-607); experiment: ELISA, BSA-coated Maxisorb plate, dilutions of fusion protein, anti-human IgG1 immunodetection complex, A405
T1 construct: also called BSA coating alone; BSA+wash
Experimental: Known RAGE ligands were coated onto the surface of Maxisorb plates at a concentration of 5 micrograms per well. Plates were incubated at 4° C. overnight. Following ligand incubation, plates were aspirated and a blocking buffer of 1% BSA in 50 mM imidizole buffer (pH 7.2) was added to the plates for 1 hour at room temperature. The plates were then aspirated and/or washed with wash buffer (20 mM Imidizole, 150 mM NaCl, 0.05% Tween-20, 5 mM CaCl₂ and 5 mM MgCl₂, pH 7.2). […] The RAGE fusion protein was added at increasing dilutions of the initial sample. The RAGE fusion protein was allowed to incubate with the immobilized ligand at 37° C. for one hour after which the plate was washed and assayed for binding of the RAGE fusion protein. Binding was detected by the addition of an immunodetection complex containing a monoclonal mouse anti-human IgG1 diluted 1:11,000 to a final assay concentration (FAC) of 21 ng/100 μL, a biotinylated goat anti-mouse IgG diluted 1:500, to a FAC of […], and an avidin-linked alkaline phosphatase. […] Binding of the complex to the immobilized RAGE fusion protein was quantified by measuring conversion of PNPP to para-nitrophenol (PNP) which was measured spectrophotometrically at 405 nm.

T1 sequence (P02769 25-607 limits assumed): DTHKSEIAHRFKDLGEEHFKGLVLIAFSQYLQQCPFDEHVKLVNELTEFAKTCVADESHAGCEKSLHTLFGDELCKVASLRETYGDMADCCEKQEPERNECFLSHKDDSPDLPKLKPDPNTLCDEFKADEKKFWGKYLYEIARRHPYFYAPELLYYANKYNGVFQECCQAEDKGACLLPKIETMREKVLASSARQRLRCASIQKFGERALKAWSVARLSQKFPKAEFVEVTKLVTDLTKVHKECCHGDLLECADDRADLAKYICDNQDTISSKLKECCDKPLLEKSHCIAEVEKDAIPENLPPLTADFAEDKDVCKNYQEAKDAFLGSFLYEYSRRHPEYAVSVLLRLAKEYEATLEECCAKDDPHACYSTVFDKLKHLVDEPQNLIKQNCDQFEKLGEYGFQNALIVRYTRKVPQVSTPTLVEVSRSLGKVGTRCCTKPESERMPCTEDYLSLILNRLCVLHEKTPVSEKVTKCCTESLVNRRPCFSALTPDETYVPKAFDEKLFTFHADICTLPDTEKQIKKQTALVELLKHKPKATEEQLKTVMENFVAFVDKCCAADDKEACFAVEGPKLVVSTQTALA

Row | TNF-α secreted by THP-1 cells on wells coated with 10 ug/well heat aggregated protein [1] [ng/well] | binding result (BSA) | Molecule
1 | > 40 | – | human IgG1 (heat aggregated) (antibody)
2 | – | no binding | RAGE fusion protein TTP-3000 (Fc fusion, N-terminal residue may be glutamine (Q) or pyroglutamic acid (pE) or a mixture thereof; C-terminal residue may be cleaved off, the N-terminus of TTP-3000 was not confirmed by experiment; also called TT3; three domain RAGE fusion protein) QNITARIGEPLVLKCKGAPKKPPQRLEWKLNTGRTEAWKVLSPQGGGPWDSVARVLPNGSLFLPAVGIQDEGIFRCQAMNRNGKETKSNYRVRVYQIPGKPEIVDSASELTAGPSVFLFPPKPKDTLMISRTPEVTCVVVDVSHEDPEVKFNWYVDGVEVHNAKTKPREEQYNSTYRVVSVLTVLHQDWLNGKEYKCKVSNKALPAPIEKTISKAKGQPREPQVYTLPPSRDELTKNQVSLTCLVKGFYPSDIAVEWESNGQPENNYKTTPPVLDSDGSFFLYSKLTVDKSRWQQGNVFSCSVMHEALHNHYTQKSLSLSPGK
3 | – | no binding | RAGE fusion protein TTP-4000 (Fc fusion, N-terminal residue glutamine (Q) or pyroglutamic acid (pE) or a mixture thereof; glycosylation sites at N2 and N288 (numbering of SEQ ID NO: 34 or 56); C-terminal residue of CH3 may be cleaved off, Produced in CHO cells; also called TT4; four domain RAGE fusion protein) QNITARIGEPLVLKCKGAPKKPPQRLEWKLNTGRTEAWKVLSPQGGGPWDSVARVLPNGSLFLPAVGIQDEGIFRCQAMNRNGKETKSNYRVRVYQIPGKPEIVDSASELTAGVPNKVGTCVSEGSYPAGTLSWHLDGKPLVPNEKGVSVKEQTRRHPETGLFTLQSELMVTPARGGDPRPTFSCSFSPGLPRHRALRTAPIQPRVWEPVPLEEVQLVVEPEGGAVAPPSVFLFPPKPKDTLMISRTPEVTCVVVDVSHEDPEVKFNWYVDGVEVHNAKTKPREEQYNSTYRVVSVLTVLHQDWLNGKEYKCKVSNKALPAPIEKTISKAKGQPREPQVYTLPPSRDELTKNQVSLTCLVKGFYPSDIAVEWESNGQPENNYKTTPPVLDSDGSFFLYSKLTVDKSRWQQGNVFSCSVMHEALHNHYTQKSLSLSPGK
